According to US20190153066A1 (IMMATICS BIOTECHNOLOGIES, published 2019):
No end group written: not given here.

Molecular target: T1, HLA-A*02:01 (peptide-receptive MHC class I molecule after UV-ligand exchange) (human)
T1 construct: monomers captured on streptavidin-coated plates; also called peptide-receptive MHC molecules; MHC monomers
Assay: UV-ligand exchange, anti-b2m ELISA; peptide exchange yield grade (>10% = +; >20% = ++; >50 = +++; >75% = ++++)
From the text: Candidate peptides for T cell based therapies according to the present invention were further tested for their MHC binding capacity (affinity). The individual peptide-MHC complexes were produced by UV-ligand exchange, where a UV-sensitive peptide is cleaved upon UV-irradiation, and exchanged with the peptide of interest as analyzed. Only peptide candidates that can effectively bind and stabilize the peptide-receptive MHC molecules prevent dissociation of the MHC complexes. To determine the yield of the exchange reaction, an ELISA was performed based on the detection of the light chain (β2m) of stabilized MHC complexes. The assay was performed as generally described in Rodenko et al. (Rodenko et al., 2006).
96 well MAXISorp plates (NUNC) were coated over night with 2 ug/ml streptavidin in PBS at room temperature, washed 4× and blocked for1 h at 37° C. in 2% BSA containing blocking buffer. Refolded HLA-A*02:01/MLA-001 monomers served as standards, covering the range of 15-500 ng/ml. Peptide-MHC monomers of the UV-exchange reaction were diluted 100-fold in blocking buffer. Samples were incubated for 1 h at 37° C., washed four times, incubated with 2 ug/ml HRP conjugated anti-β2 m for 1 h at 37° C., washed again and detected with TMB solution that is stopped with […]. Absorption was measured at 450 nm. Candidate peptides that show a high exchange yield (preferably higher than 50%, most preferred higher than 75%) are generally preferred for a generation and production of antibodies or fragments thereof, and/or T cell receptors or fragments thereof, as they show sufficient avidity to the MHC molecules and prevent dissociation of the MHC complexes.

Binder	peptide exchange yield [%]
SAFGFPVIL [peptide SAFGFPVIL (SEQ ID NO: 22)]	20 to 50
TAYPQVVVV [peptide TAYPQVVVV (SEQ ID NO: 19)]	20 to 50
ISAPLVKTL [peptide ISAPLVKTL (SEQ ID NO: 24)]	10 to 20
RLAKLTAAV [peptide RLAKLTAAV (SEQ ID NO: 9)]	> 75
AVMTDLPVI [peptide AVMTDLPVI (SEQ ID NO: 16)]	> 75
SAFPFPVTVSL [peptide SAFPFPVTVSL (SEQ ID NO: 10)]	20 to 50
AAYPEIVAV [peptide AAYPEIVAV (SEQ ID NO: 2)]	50 to 75
GLIDEVMVLL [peptide GLIDEVMVLL (SEQ ID NO: 5)]	> 75
LLLPLLPPLSPS (also: trifluoroacetate salt) [peptide LLLPLLPPLSPS (SEQ ID NO: 6)]	> 75
IAFPTSISV [peptide IAFPTSISV (SEQ ID NO: 21)]	50 to 75
FLLEAQNYL [peptide FLLEAQNYL (SEQ ID NO: 4)]	> 75
FASGLIHRV [peptide FASGLIHRV (SEQ ID NO: 30)]	50 to 75
NLSETASTMAL [peptide NLSETASTMAL (SEQ ID NO: 25)]	> 75
YAAEIASAL (also: trifluoroacetate salt) [peptide YAAEIASAL (SEQ ID NO: 1)]	50 to 75
IAIPFLIKL [peptide IAIPFLIKL (SEQ ID NO: 31)]	> 75
SVIDSLPEI [peptide SVIDSLPEI (SEQ ID NO: 15)]	> 75

Binder	peptide exchange yield [%]
VLPRAFTYV [peptide VLPRAFTYV (SEQ ID NO: 13)]	> 75
ALAEQVQKA [peptide ALAEQVQKA (SEQ ID NO: 27)]	50 to 75
SLSPDLSQV [peptide SLSPDLSQV (SEQ ID NO: 18)]	50 to 75
FASEVSNVL [peptide FASEVSNVL (SEQ ID NO: 29)]	> 75
VLQDELPQL [peptide VLQDELPQL (SEQ ID NO: 20)]	> 75
LLLSDPDKVTI [peptide LLLSDPDKVTI (SEQ ID NO: 7)]	> 75
SIIDFTVTM [peptide SIIDFTVTM (SEQ ID NO: 11)]	> 75
YGIEFVVGV [peptide YGIEFVVGV (SEQ ID NO: 14)]	> 75
YASGSSASL [peptide YASGSSASL (SEQ ID NO: 28)]	10 to 20
SLLSELLGV [peptide SLLSELLGV (SEQ ID NO: 23)]	> 75
YVISQVFEI [peptide YVISQVFEI (SEQ ID NO: 32)]	> 75
LSASLVRIL [peptide LSASLVRIL (SEQ ID NO: 8)]	10 to 20
VLYDNTQLQL [peptide VLYDNTQLQL (SEQ ID NO: 17)]	> 75
TAQTLVRIL [peptide TAQTLVRIL (SEQ ID NO: 26)]	10 to 20
TILPGNLQSW [peptide TILPGNLQSW (SEQ ID NO: 12)]	10 to 20
EMDSTVITV [peptide EMDSTVITV (SEQ ID NO: 3)]	50 to 75
